Results: article PMC2572730, “Structural Basis for the Recognition of Histone H4 by the Histone-Chaperone RbAp46” (Structure(London, England:1993), 2008)

Experiments:
[1] = molecular target: T1, RbAp46 (pRB-associated protein p46), human, recombinant (human, UniProt Q16576 1-411); assay: other fluorescence titration; intrinsic tryptophan fluorescence of 45 nM RbAp46, increasing H3/H4 or H4 peptide (16-41); 50 mM Tris-HCl (pH 7.5), 200 mM NaCl, 5 mM DTT, 25°C; excitation 295 nm, emission 435 nm; single binding-site model; KD for H3/H4 called apparent; details: both partners purified
T1 construct: RbAp46 (RBBP7), human; also called RBBP7; RbAb46; source: recombinant, expressed and purified as described previously (Verreault et al., 1998; Berger et al., 2004)
T1 sequence (Q16576 1-411): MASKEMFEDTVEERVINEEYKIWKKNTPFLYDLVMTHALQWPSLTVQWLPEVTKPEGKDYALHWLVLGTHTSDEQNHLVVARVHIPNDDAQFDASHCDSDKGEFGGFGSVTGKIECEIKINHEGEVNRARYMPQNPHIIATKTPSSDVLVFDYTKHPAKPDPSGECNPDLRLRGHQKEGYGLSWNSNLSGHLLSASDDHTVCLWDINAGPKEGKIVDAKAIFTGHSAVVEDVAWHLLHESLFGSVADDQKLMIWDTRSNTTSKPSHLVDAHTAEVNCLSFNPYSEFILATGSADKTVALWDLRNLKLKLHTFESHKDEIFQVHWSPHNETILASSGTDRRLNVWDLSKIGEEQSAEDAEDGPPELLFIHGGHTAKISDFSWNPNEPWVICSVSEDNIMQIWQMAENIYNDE

[2] = molecular target: T1, RbAp46 (pRB-associated protein p46), …; assay: SPR; RbAp46 crosslinked to a CM5 chip, N-terminal histone H4 peptide as analyte; 10 mM HEPES (pH 7.4), 150 mM NaCl, 0.0005% (v/v) Surfactant P20; details: both partners purified

B1: synthetic histone H4 peptide (residues 16-41) (peptide)
peptide: not shown
notes: histone H4 residues 16-41; also called N-terminal histone H4 peptide; H4(16-41); source: synthetic peptide
In the case of B1, the Kd [1] is reported as 1.1 µM and the Kd [2] is reported as about 1 µM.
